Source: patent US20260184782A1 (TWIST BIOSCIENCE, published 2026)
Substitutions are numbered along the chain they refer to.

T1: recombinant human TIGIT (human, UniProt Q495A1 22-141, limits assumed)
T1 construct: recombinant human TIGIT used in Carterra SPR; also called hTIGIT
T1 sequence (looked up): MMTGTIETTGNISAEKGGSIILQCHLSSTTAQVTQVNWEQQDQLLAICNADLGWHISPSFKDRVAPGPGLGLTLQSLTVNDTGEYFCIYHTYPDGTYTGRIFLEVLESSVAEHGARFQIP

B1: TIGIT-SC30 (Fc fusion)
VHH: EVQLVESGGGLVQPGGSLRLSCAASGRSFSSDWIGWFRQAPGKERELVAAIDWSGGSALYADSVKGRFTISADNSKNTAYLQMNSLKPEDTAVYYCARVNWNNVGWFDPWGQGTLVTVSS
notes: VHH-Fc fusion in assay
B2: TIGIT-SC15 (Fc fusion)
VHH: EVQLVESGGGLVQPGGSLRLSCAASGSILSFNHIGWFRQAPGKEREGVAWIARYDGSTLYADSVKGRFTISADNSKNTAYLQMNSLKPEDTAVYYCARARGGYVDYWGQGTLVTVSS
notes: VHH-Fc fusion in assay
B3: TIGIT-SC44 (Fc fusion)
VHH: EVQLVESGGGLVQPGGSLRLSCAASGSIFGLGAMGWFRQAPGKERELVAITWGGSTTLYADSVKGRFTISADNSKNTAYLQMNSLKPEDTAVYYCATDQGQWLFDFWGQGTLVTVSS
notes: VHH-Fc fusion in assay
B4: TIGIT-SC142 (Fc fusion)
VHH: EVQLVESGGGLVQPGGSLRLSCAASGFSFDRWAMGWFRQAPGKEREFVAAIGWSGNLKAYADSVKGRFTISADNSKNTAYLQMNSLKPEDTAVYYCASGDGYSMDYFDPWGQGTLVTVSS
notes: VHH-Fc fusion in assay
B5: TIGIT-SC140 (Fc fusion)
VHH: EVQLVESGGGLVQPGGSLRLSCAASGNTFSGGFTFDRSWMGWFRQAPGKEREWVASVLRGGYTWYADSVKGRFTISADNSKNTAYLQMNSLKPEDTAVYYCAGDRYYDFWSGPNSGDYWGQGTLVTVSS
notes: VHH-Fc fusion in assay
B6: TIGIT-SC145 (Fc fusion)
VHH: EVQLVESGGGLVQPGGSLRLSCAASGNTFSGGFTLGYYVMGWFRQAPGKEREFVAAISRSGTLKAYADGVKGRFTISADNSKNTAYLQMNSLKPEDTAVYYCARVEAYGDPLGYWGQGTLVTVSS
notes: VHH-Fc fusion in assay
B7: TIGIT-SC204 (Fc fusion)
VHH: EVQLVESGGGLVQPGGSLRLSCAASGFLFNSYWMVWFRQAPGKEREFVAAIWRSGTLKAYADSVKGRFTISADNSKNTAYLQMNSLKPEDTAVYYCAADVNYGSTWRNWGQGTLVTVSS
notes: VHH-Fc fusion in assay
B8: TIGIT-SC65 (Fc fusion)
VHH: EVQLVESGGGLVQPGGSLRLSCAASGFTFGNYDMGWFRQAPGKEREFVAAITGSGRSTYYADSVKGRFTISADNSKNTAYLQMNSLKPEDTAVYYCARGRIAASGTKVYWYFDLWGQGTLVTVSS
notes: VHH-Fc fusion in assay
B9: TIGIT-SC161 (Fc fusion)
VHH: EVQLVESGGGLVQPGGSLRLSCAASGFTFSPSWMGWFRQAPGKEREWVASVLRGGYTWYADSVKGRFTISADNSKNTAYLQMNSLKPEDTAVYYCTTDRAIGVRPLFDHWGQGTLVTVSS
notes: VHH-Fc fusion in assay
B10: TIGIT-SC162 (Fc fusion)
VHH: B9 VHH with F27N, P31G, S32G, W33F
notes: VHH-Fc fusion in assay
B11: TIGIT-SC66 (Fc fusion)
VHH: EVQLVESGGGLVQPGGSLRLSCAASGTTFSSAAMGWFRQAPGKEREWVASVLRGGYTWYADSVKGRFTISADNSKNTAYLQMNSLKPEDTAVYYCVTDPRQWLGHDYWGQGTLVTVSS
notes: VHH-Fc fusion in assay
B12: TIGIT-SC72 (Fc fusion)
VHH: EVQLVESGGGLVQPGGSLRLSCAASGGLTFSSYAMGWFRQAPGKEREFVAAISWSGGRTYYADSVKGRFTISADNSKNTAYLQMNSLKPEDTAVYYCARWSAKRHSDTMTYYMDVWGQGTLVTVSS
notes: VHH-Fc fusion in assay
B13: TIGIT-SC133 (Fc fusion)
VHH: EVQLVESGGGLVQPGGSLRLSCAASGFTLENNMMGWFRQAPGKEREFVAAISASGTLRAYADSVKGRFTISADNSKNTAYLQMNSLKPEDTAVYYCACGRVSGAFIYFDYWGQGTLVTVSS
notes: VHH-Fc fusion in assay
B14: TIGIT-SC29 (Fc fusion)
VHH: EVQLVESGGGLVQPGGSLRLSCAASGFTLENNMMGWFRQAPGKERELVAAIDWSGGSTIYADSVKGRFTISADNSKNTAYLQMNSLKPEDTAVYYCARGHDYGDYIAYWGQGTLVTVSS
notes: VHH-Fc fusion in assay
B15: TIGIT-SC164 (Fc fusion)
VHH: EVQLVESGGGLVQPGGSLRLSCAASGFTFDRSWMGWFRQAPGKEREFVASVLRGGYTWYADSVKGRFTISADNSKNTAYLQMNSLKPEDTAVYYCTTEGSGWRNWGQGTLVTVSS
notes: VHH-Fc fusion in assay
B16: TIGIT-SC128 (Fc fusion)
VHH: EVQLVESGGGLVQPGGSLRLSCAASGFIGNYHAMGWFRQAPGKEREFVARITSGGSTYYADSVKGRFTISADNSKNTAYLQMNSLKPEDTAVYYCGGFGNWGQGTLVTVSS
notes: VHH-Fc fusion in assay
B17: TIGIT-SC5 (Fc fusion)
VHH: EVQLVESGGGLVQPGGSLRLSCAASGFAFGDSWMGWFRQAPGKEREWVASVLRGGYTWYADSVKGRFTISADNSKNTAYLQMNSLKPEDTAVYYCARESEGWFDPWGQGTLVTVSS
notes: VHH-Fc fusion in assay
B18: TIGIT-SC183 (Fc fusion)
VHH: B17 VHH with R97K, E98D, S99R, E100S, G101Y, W102S, P105Y
notes: VHH-Fc fusion in assay
B19: TIGIT-SC182 (Fc fusion)
VHH: EVQLVESGGGLVQPGGSLRLSCAASGFTFSSSSMGWFRQAPGKEREFVAAINWSGGSTSYADSVKGRFTISADNSKNTAYLQMNSPKPEDTAVYYCAKDRSYSFDYWGQGTLVTVSS
notes: VHH-Fc fusion in assay
B20: TIGIT-SC27 (Fc fusion)
VHH: EVQLVESGGGLVQPGGSLRLSCAASGLTFSNYVMGWFRQAPGKEREVVAGILSDGRELYADSVKGRFTISADNSKNTAYLQMNSLKPEDTAVYYCARDVFGEGHWGQGTLVTVSS
notes: VHH-Fc fusion in assay
B21: TIGIT-SC85 (Fc fusion)
VHH: EVQLVESGGGLVQPGGSLRLSCAASGRTFSPYTMGWFRQAPGKEREWVAGISQSGGSTAYADSVKGRFTISADNSKNTAYLQMNSLKPEDTAVYYCARDLNAMGDAYDIWGQGTLVTVSS
notes: VHH-Fc fusion in assay
B22: TIGIT-SC149 (Fc fusion)
VHH: EVQLVESGGGLVQPGGSLRLSCAASGFTLENNMMGWFRQAPGKEREFVAAISRSGTLKAYADSVKGRFTISADNSKNTAYLQMNSLKPEDTAVYYCAKVQGPYCSGGSCYLYTFDLWGQGTLVTVSS
notes: VHH-Fc fusion in assay
B23: TIGIT-SC139 (Fc fusion)
VHH: EVQLVESGGGLVQPGGSLRLSCAASGFTLENNMMGWFRQAPGKEREFVAAISRSGTLKAYADSVKGRFTISADNSKNTAYLRMNSLKPEDTAVYYCAGLTSGGAFSYYWGQGTLVTVSS
notes: VHH-Fc fusion in assay
B24: TIGIT-SC129 (Fc fusion)
VHH: EVQLVESGGGLVQPGGSLRLSCAASGPTLGSYVMGWFRQAPGKEREFVAAISGSGDDTYYADSVKGRFTISADNSKNTAYLQMNSLKPEDTAVYYCARWREFPGYYFAIDVWGQGTLVTVSS
notes: VHH-Fc fusion in assay
B25: TIGIT-SC130 (Fc fusion)
VHH: B24 VHH with M34T, G55S
notes: VHH-Fc fusion in assay
B26: TIGIT-SC53 (Fc fusion)
VHH: EVQLVESGGGLVQPGGSLRLSCAASGFTFSPSWMGWFRQAPGKEREWVASVLRGGYTWYADSVKGRFTISADNSKNTAYLQMNSLKPEDTAVYYCARESTIVGAIDSWGQGTLVTVSS
notes: VHH-Fc fusion in assay
B27: TIGIT-SC131 (Fc fusion)
VHH: EVQLVESGGGLVQPGGSLRLSCAASGDTSEIYDMGWFRQAPGKEREFVAITWNSGRIGSNGFATYADSVKGRFTISADNSKNTAYLQMNSLKPEDTAVYYCARWAVGQAFDLWGQGTLVTVSS
notes: VHH-Fc fusion in assay
B28: TIGIT-SC144 (Fc fusion)
VHH: EVQLVESGGGLVQPGGSLRLSCAASGFTLENNMMGWFRQAPGKEREFVAAISPSGTLRAYADSVKGRFTISADNSKNTAYLQMNSLKPEDTAVYYCAGIHDSGVPLGNWGQGTLVTVSS
notes: VHH-Fc fusion in assay
B29: TIGIT-SC16 (Fc fusion)
VHH: EVQLVESGGGLVQPGGSLRLSCAASGTTFSSAAMGWFRQAPGKEREWVASVLRGGYTWYADSVKGRFTISADNSKNTAYLQMNSLKPEDTAVYYCARDPVELGDYWGQGTLVTVSS
notes: VHH-Fc fusion in assay
B30: TIGIT-SC132 (Fc fusion)
VHH: EVQLVESGGGLVQPGGSLRLSCAASGFTLENNMMGWFRQAPGKEREFVAAISASGTLRAYADSVKGRFTISADNSKNTAYLQMNSLKPEDTAVYYCATWRPNRGRYYDWYFDLWGQGTLVTVSS
notes: VHH-Fc fusion in assay

Molecular target: T1, recombinant human TIGIT
Assay: SPR Carterra, average
Protocol: Binding affinities of VHH-Fc proteins to recombinant human TIGIT were measured by SPR using a Carterra instrument (Table 10A). […] Average values reported from measurements from 1-2 samples.

Binder | Kd [nM] | koff [s⁻¹] | kon [M⁻¹ s⁻¹]
B1 | 67.3 | 0.0155 | 231000
B2 | 62 | 0.00814 | 143000
B3 | 35.1 | 0.0124 | 354000
B4 | 66.5 | 0.0213 | 320000
B5 | 68.7 | 0.00474 | 68900
B6 | 47.9 | 0.0108 | 226000
B7 | 66.7 | 0.00339 | 50800
B8 | 44.9 | 0.0249 | 1.09e+06
B9 | 33.9 | 0.00146 | 57100
B10 | 126 | 0.0203 | 622000
B11 | 39.1 | 0.00116 | 29700
B12 | 48.1 | 0.00168 | 34900
B13 | 41.9 | 0.00561 | 158000
B14 | 59.2 | 0.00287 | 48700
B15 | 55.7 | 0.00258 | 52800
B16 | 45.4 | 0.00708 | 158000
B17 | 51.4 | 0.00216 | 42000
B18 | 55.2 | 0.00495 | 90400
B19 | 60.6 | 0.00722 | 119000
B20 | 80.6 | 0.00624 | 80900
B21 | 44.6 | 0.000599 | 8760
B22 | 35 | 0.0043 | 123000
B23 | 55.2 | 0.00778 | 141000
B24 | 43.9 | 0.00191 | 43700
B25 | 73 | 0.00526 | 72000
B26 | 55.4 | 0.0027 | 48800
B27 | 41 | 0.0278 | 677000
B28 | 41 | 0.00574 | 140000
B29 | 52.6 | 0.00387 | 80100
B30 | 45.6 | 0.00347 | 197000
